Experimental data as given in the supplement of paper PMC10057847, “Precision engineering of biological function with large-scale measurements and machine learning” (PLOS ONE, 2023).
± gives the uncertainty stated by the source.

B1: library; the commonest letter at each place (parent)
chain: MKPVTLYDVAEYAGVSYQTVSRVVNQASHVSAKTREKVEAAMAELNYIPNRVAQQLAGKQSLLIGVATSSLALHAPSQIVAAIKSRADQLGASVVVSMVERSGVEACKAAVHNLLAQRVSGLIINYPLDDQDAIAVEAACTNVPALFLDVSDQTPINSIIFSHEDGTRLGVEHLVALGHQQIALLAGPLSSVSARLRLAGWHKYLTRNQIQPIAEREGDWSAMSGFQQTMQMLNEGIVPTAMLVANDQMALGAMRAITESGLRVGADISVVGYDDTEDSSCYIPPLTTIKQDFRLLGQTSVDRLLQLSQGQAVKGNQLLPVSLVKRKTTLAPNTQTASPRALADSLMQLARQVSRLESGQ

Key:
Details in all cases: with IPTG
IPTG [1] = variants of: B1
Procedure: (§1)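 LacI variants on the pVER plasmid regulate eYFP behind lacO in E. coli MG1655Δlac, grown in rich M9 at 37 °C with a 2-fold IPTG dilution series. After two 160-min growth steps, YFP is read by flow cytometry and calibrated to MEF. Bayesian MCMC fits of the Hill equation give G0, G∞, EC50 and n (posterior mean ± SD).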

IPTG [2] = variants of: B1; test: Hill coefficient n (dimensionless); higher = steeper dose response
Procedure: as §1

IPTG [3] = variants of: B1; test: basal output G0 (YFP, no IPTG) (log10 MEF); higher = higher reporter expression without inducer
Procedure: as §1

IPTG [4] = variants of: B1; test: saturating output G-infinity (YFP) (log10 MEF); higher = higher reporter expression at saturating IPTG
Procedure: as §1

| Variant | EC50 for IPTG (log10 µmol/L) (IPTG [1]) | Hill coefficient n (IPTG [2]) | basal output G0 (log10) (IPTG [3]) | saturating output G-infinity (log10) (IPTG [4]) |
| --- | --- | --- | --- | --- |
| H74Y A92V H112L S151T D165N H179Q | 1.29 ± 0.014 | 1.54 ± 0.049 | 4.426 ± 0.0049 | 3.262 ± 0.017 |
| Q181H | 2.037 ± 0.0042 | 1.625 ± 0.015 | 2.24 ± 0.049 | 4.4146 ± 0.0018 |
| I83M V136E | 1.48 ± 0.029 | 1.21 ± 0.075 | 4.519 ± 0.0083 | 3.789 ± 0.011 |
| A87P V301M E357G | 2.37 ± 0.024 | 1.18 ± 0.053 | 4.51 ± 0.0073 | 3.619 ± 0.014 |
| G121V G261V | 1.847 ± 0.017 | 1.58 ± 0.052 | 2.58 ± 0.083 | 4.418 ± 0.0075 |
| S77P E105V | 2.049 ± 0.0095 | 1.59 ± 0.043 | 2.53 ± 0.067 | 4.1995 ± 0.004 |
| V80L S97T | 1.611 ± 0.0061 | 1.57 ± 0.031 | 2.33 ± 0.069 | 4.0264 ± 0.0022 |
| V15I F161I A266T K290R M347I | 2.85 ± 0.076 | 1.46 ± 0.13 | 3.111 ± 0.019 | 4.369 ± 0.043 |
| S70R S190C | 1.547 ± 0.0043 | 1.47 ± 0.017 | 2.64 ± 0.029 | 4.2816 ± 0.0016 |
| E36V Q89H D132G A138D E277A Q306E S322T | 2.315 ± 0.02 | 1.54 ± 0.044 | 2.12 ± 0.15 | 4.363 ± 0.01 |
| V99E A116T T141I S190C | 0.86 ± 0.015 | 1.33 ± 0.047 | 3.534 ± 0.013 | 4.454 ± 0.0039 |
| S69T S97T | 1.37 ± 0.019 | 1.55 ± 0.059 | 2.65 ± 0.11 | 4.496 ± 0.0072 |
| Q231R | 2.063 ± 0.0082 | 1.67 ± 0.03 | 2.29 ± 0.081 | 4.3759 ± 0.0039 |
| A194V | 3.35 ± 0.048 | 1.61 ± 0.06 | 2.01 ± 0.08 | 4.322 ± 0.041 |
| I160N R263S L305Q | 2.561 ± 0.022 | 1.61 ± 0.054 | 1.14 ± 0.59 | 4.285 ± 0.012 |
| L56M D130E | 0.886 ± 0.058 | 1.42 ± 0.21 | 4.026 ± 0.027 | 4.51 ± 0.011 |
| S97T V136E | 1.37 ± 0.038 | 1.42 ± 0.12 | 3.05 ± 0.078 | 4.331 ± 0.013 |
| Q55K G121V N333I | 1.78 ± 0.031 | 1.58 ± 0.092 | 2.37 ± 0.36 | 4.393 ± 0.012 |
| L90Q R101G C140G L169Q K290I T329S | 1.57 ± 0.01 | 1.54 ± 0.041 | 3.06 ± 0.033 | 4.4822 ± 0.004 |
| A72V K84N I210F M254T T336S | 0.962 ± 0.049 | 0.934 ± 0.078 | 4.369 ± 0.0082 | 4.067 ± 0.0058 |

| Variant | EC50 for IPTG (log10 µmol/L) (IPTG [1]) | Hill coefficient n (IPTG [2]) | basal output G0 (log10) (IPTG [3]) | saturating output G-infinity (log10) (IPTG [4]) |
| --- | --- | --- | --- | --- |
| S69T I83M S97T | 1.957 ± 0.0053 | 1.61 ± 0.017 | 1.17 ± 0.54 | 4.4073 ± 0.0024 |
| T68I | 1.41 ± 0.045 | 1.28 ± 0.1 | 3.24 ± 0.054 | 4.419 ± 0.015 |
| M42I | 2.437 ± 0.015 | 1.43 ± 0.046 | 0.821 ± 0.6 | 4.148 ± 0.0056 |
| D88Y A241V N246S L305M L319F P339T A341T L346S | 2.73 ± 0.1 | 0.483 ± 0.058 | 4.455 ± 0.018 | 2.91 ± 1.1 |
| E39D N208D A222V | 1.37 ± 0.022 | 1.55 ± 0.079 | 3.1 ± 0.043 | 4.484 ± 0.0081 |
| I83M S97T | 2.18 ± 0.046 | 1.52 ± 0.16 | 1.25 ± 0.81 | 4.399 ± 0.017 |
| V95M A337T | 2.109 ± 0.018 | 1.59 ± 0.082 | 2.13 ± 0.64 | 4.23 ± 0.0081 |
| S70R | 1.42 ± 0.021 | 1.44 ± 0.064 | 2.58 ± 0.09 | 4.22 ± 0.0077 |
| F161S | 1.12 ± 0.017 | 1.43 ± 0.047 | 3.04 ± 0.036 | 4.464 ± 0.0055 |
| F161L | 3.161 ± 0.0097 | 1.32 ± 0.022 | 1.83 ± 0.42 | 4.38 ± 0.0037 |
| F161V | 2.58 ± 0.015 | 1.59 ± 0.044 | 1.98 ± 0.34 | 4.455 ± 0.0069 |
| G91D V94A R101G S158C T167M E172D A176S F226Y T276S T299A | 2.31 ± 0.027 | 1.25 ± 0.063 | 4.329 ± 0.0062 | 3.63 ± 0.0095 |
| S69F V95A A110E I159S | 1.109 ± 0.01 | 1.64 ± 0.055 | 2.8 ± 0.081 | 4.2252 ± 0.003 |
| N125D | 2.739 ± 0.019 | 1.27 ± 0.038 | 2.73 ± 0.035 | 4.445 ± 0.0072 |
| S70R V271M | 1.521 ± 0.012 | 1.46 ± 0.044 | 2.7 ± 0.066 | 4.268 ± 0.0045 |
| Q89L S158C E172K Q291H | 2.457 ± 0.021 | 1.33 ± 0.04 | 3.336 ± 0.007 | 4.341 ± 0.0086 |
| E100V T299I | 0.9867 ± 0.0075 | 1.54 ± 0.032 | 3.09 ± 0.037 | 4.4562 ± 0.0024 |
| A82V | 1.93 ± 0.025 | 1.51 ± 0.075 | 1.71 ± 0.7 | 4.252 ± 0.01 |
| A82G | 2.576 ± 0.011 | 1.3 ± 0.021 | 2.51 ± 0.036 | 4.414 ± 0.0045 |
| S70R A87P V301M E357G | 3.59 ± 0.015 | 1.66 ± 0.081 | 4.5727 ± 0.004 | 3.672 ± 0.019 |

| Variant | EC50 for IPTG (log10 µmol/L) (IPTG [1]) | Hill coefficient n (IPTG [2]) | basal output G0 (log10) (IPTG [3]) | saturating output G-infinity (log10) (IPTG [4]) |
| --- | --- | --- | --- | --- |
| V94M S190C G200A Q209R R263H Q317L | 1.44 ± 0.025 | 1.4 ± 0.072 | 3.418 ± 0.023 | 4.454 ± 0.0086 |
| L296R | 4.37 ± 0.045 | 1.33 ± 0.051 | 2.995 ± 0.0098 | 4.383 ± 0.025 |
| L90Q L198M E235D T336S | 1.88 ± 0.022 | 1.61 ± 0.073 | 2.51 ± 0.2 | 4.423 ± 0.0091 |
| N208Y | 2.01 ± 0.0066 | 1.64 ± 0.026 | 2.24 ± 0.14 | 4.4021 ± 0.003 |
| L56M A194V | 2.393 ± 0.016 | 1.42 ± 0.045 | 3.9036 ± 0.0036 | 4.549 ± 0.0059 |
| P76Q V150A N157D Q181H I210L M254T I283N | 2.23 ± 0.046 | 1.11 ± 0.11 | 4.237 ± 0.007 | 3.925 ± 0.008 |
| Q55H D130E V192A T258I D267N Y273H N333I | 2.889 ± 0.028 | 1.39 ± 0.097 | 4.402 ± 0.0063 | 3.681 ± 0.016 |
| G103D H202Y P284T | 1.5 ± 0.016 | 1.64 ± 0.075 | 2.85 ± 0.11 | 4.458 ± 0.0062 |
| M42I R51C | 1.496 ± 0.014 | 1.6 ± 0.058 | 3.21 ± 0.035 | 4.511 ± 0.0051 |
| L169P | 2.678 ± 0.026 | 1.34 ± 0.061 | 2.72 ± 0.067 | 4.3 ± 0.0095 |
| V80L I83M S97T | 1.986 ± 0.0056 | 1.55 ± 0.025 | 1.99 ± 0.077 | 3.8535 ± 0.0021 |
| S120G M223L F226L L319F R355L | 2.248 ± 0.015 | 1.51 ± 0.035 | 2.781 ± 0.021 | 4.407 ± 0.0067 |
| Q60R N113S R207G R216G V271M L307I A350T | 2.236 ± 0.011 | 1.62 ± 0.029 | 2.28 ± 0.058 | 4.401 ± 0.0051 |
| R51C | 0.988 ± 0.036 | 1.44 ± 0.14 | 3.91 ± 0.021 | 4.49 ± 0.0086 |
| R51H | 1.19 ± 0.02 | 1.46 ± 0.061 | 3.701 ± 0.013 | 4.63 ± 0.0066 |
| V80L A87P V301M E357G | 1.57 ± 0.045 | 1.15 ± 0.079 | 4.52 ± 0.015 | 3.493 ± 0.02 |
| I160F L185F | 3.06 ± 0.056 | 1.77 ± 0.11 | 2.08 ± 0.16 | 4.19 ± 0.048 |
| V136E | 1.69 ± 0.034 | 1.5 ± 0.13 | 2.46 ± 0.36 | 4.015 ± 0.014 |
| L62M A109V D149E M242V P285S Q317R | 2.91 ± 0.051 | 1.37 ± 0.066 | 2.56 ± 0.042 | 4.412 ± 0.028 |
| A138T A214V V244L | 1.808 ± 0.0078 | 1.61 ± 0.025 | 2.43 ± 0.047 | 4.4294 ± 0.0033 |
